Measured values as given in patent US20030211575A1.

Key:
Assay in all cases: cell-based or functional assay
[1] = molecular target: Shaker H4 K+ channel, N-terminal deletion 6-46, P475E mutant (Drosophila) (UniProt P08510)
[2] = molecular target: Shaker H4 K+ channel, N-terminal deletion 6-46, P475H mutant (Drosophila) (UniProt P08510)
[3] = molecular target: Shaker H4 K+ channel, N-terminal deletion 6-46, P475K mutant (Drosophila) (UniProt P08510)
[4] = molecular target: Kv2.1 K+ channel P406D mutant (rat) (UniProt P15387)
[5] = molecular target: Shaker H4 K+ channel, N-terminal deletion 6-46, P475D mutant (Drosophila) (UniProt P08510)

Measured: block of channel current (two-electrode voltage clamp, Xenopus oocytes); concentration called saturating

Chain of Shaker H4 K+ channel, N-terminal deletion 6-46, P475D mutant (Drosophila) (P08510 whole entry P475D): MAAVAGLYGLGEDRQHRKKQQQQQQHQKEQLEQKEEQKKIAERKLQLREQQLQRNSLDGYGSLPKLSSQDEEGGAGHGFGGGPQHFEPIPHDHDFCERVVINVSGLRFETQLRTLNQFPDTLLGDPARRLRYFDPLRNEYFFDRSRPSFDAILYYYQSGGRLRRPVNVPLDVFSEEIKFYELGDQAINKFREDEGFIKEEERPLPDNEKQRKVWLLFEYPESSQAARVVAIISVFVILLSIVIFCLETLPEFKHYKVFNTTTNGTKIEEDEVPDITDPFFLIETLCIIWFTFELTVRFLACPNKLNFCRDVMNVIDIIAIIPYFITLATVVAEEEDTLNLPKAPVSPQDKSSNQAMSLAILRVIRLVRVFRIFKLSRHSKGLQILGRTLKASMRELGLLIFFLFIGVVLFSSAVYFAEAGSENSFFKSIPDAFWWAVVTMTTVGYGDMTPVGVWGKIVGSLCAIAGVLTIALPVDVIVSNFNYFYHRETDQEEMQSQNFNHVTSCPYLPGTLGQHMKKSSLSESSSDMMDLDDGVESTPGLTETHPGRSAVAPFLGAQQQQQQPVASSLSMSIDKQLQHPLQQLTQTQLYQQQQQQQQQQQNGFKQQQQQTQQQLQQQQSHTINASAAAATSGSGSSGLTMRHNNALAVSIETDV
Chain of Shaker H4 K+ channel, N-terminal deletion 6-46, P475K mutant (Drosophila) (P08510 whole entry P475K): as the sequence (P08510 whole entry P475D) above, with D475K counted along it
Chain of Shaker H4 K+ channel, N-terminal deletion 6-46, P475E mutant (Drosophila) (P08510 whole entry P475E): as the sequence (P08510 whole entry P475D) above, with D475E counted along it
Chain of Shaker H4 K+ channel, N-terminal deletion 6-46, P475H mutant (Drosophila) (P08510 whole entry P475H): as the sequence (P08510 whole entry P475D) above, with D475H counted along it

agitoxin2 (from UniProt P46111 1-38) (peptide)
1 µM: [1] | [2] | [3] | [4] | [5]
